Measurements taken from patent CN1421459A.

How the values were obtained:
人T细胞CD3 (human) [1] = assay: cell-based or functional assay
人T细胞CD3 (human) [2] = assay: fluorescence staining, flow cytometry, antibody 1 μg/ml; cells not named
人T细胞CD3 (human) [3] = assay: fluorescence staining, flow cytometry, antibody 0.1 μg/ml; cells not named
人T细胞CD3 (human) [4] = assay: flow cytometry on human PBMC, unlabelled huGD3 competing with saturating FITC-mGD3; calculated by the formula [X]-[mGD3]=(1/Kx)-(1/Ka)
人T细胞CD3 (human) [5] = assay: fluorescence staining, flow cytometry, antibody 10 μg/ml; cells not named
人T细胞CD3 (human) [6] = assay: fluorescence staining and flow cytometry on CD3-positive HPBLL or Jurkat cells, compared with mOKT3 (Fig. 3)

Chain of 人T细胞CD3 (human) (P07766 23-207, chain 1 of 4): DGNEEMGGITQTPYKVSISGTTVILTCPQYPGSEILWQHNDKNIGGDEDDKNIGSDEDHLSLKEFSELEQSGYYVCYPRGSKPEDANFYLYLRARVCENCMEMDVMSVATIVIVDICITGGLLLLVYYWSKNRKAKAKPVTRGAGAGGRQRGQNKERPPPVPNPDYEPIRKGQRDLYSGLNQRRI
Chain of 人T细胞CD3 (human) (P09693 23-182, chain 2 of 4, further chain): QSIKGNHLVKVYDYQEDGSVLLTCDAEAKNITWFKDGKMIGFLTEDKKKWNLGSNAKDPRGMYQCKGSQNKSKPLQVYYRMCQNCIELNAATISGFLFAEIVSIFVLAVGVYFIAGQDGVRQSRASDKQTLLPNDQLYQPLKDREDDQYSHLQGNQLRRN
Chain of 人T细胞CD3 (human) (P04234 22-171, chain 3 of 4, further chain): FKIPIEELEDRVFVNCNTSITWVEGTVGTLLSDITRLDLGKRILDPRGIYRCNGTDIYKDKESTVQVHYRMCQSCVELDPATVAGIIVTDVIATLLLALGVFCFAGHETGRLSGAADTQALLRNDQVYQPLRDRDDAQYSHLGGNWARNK
Chain of 人T细胞CD3 (human) (P20963 22-164, chain 4 of 4, further chain): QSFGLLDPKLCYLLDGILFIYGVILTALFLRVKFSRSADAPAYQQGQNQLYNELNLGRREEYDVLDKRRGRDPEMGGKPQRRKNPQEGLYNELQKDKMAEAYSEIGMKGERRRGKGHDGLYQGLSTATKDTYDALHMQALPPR

CD3调变(%), antibody 10^1 ng/ml, human PBMC, 37°C 24 h (人T细胞CD3 (human) [1]): 13.6%
CD3调变(%), antibody 10^2 ng/ml, human PBMC, 37°C 24 h (人T细胞CD3 (human) [1]): 56.9%
CD3调变(%), antibody 10^3 ng/ml, human PBMC, 37°C 24 h (人T细胞CD3 (human) [1]): 70%
CD3调变(%), antibody 10^4 ng/ml, human PBMC, 37°C 24 h (人T细胞CD3 (human) [1]): 85.4%
CD3调变(%), antibody 10^5 ng/ml, human PBMC, 37°C 24 h (人T细胞CD3 (human) [1]): 85.6%
CD3调变(%), antibody 10^-1 ng/ml, human PBMC, 37°C 24 h (人T细胞CD3 (human) [1]): 9.52%
CD3调变(%), antibody column printed '10' (probably 10^0) ng/ml, human PBMC, 37°C 24 h (人T细胞CD3 (human) [1]): 13.2%
MFI (人T细胞CD3 (human) [2]): 76 MFI
MFI (人T细胞CD3 (human) [3]): 55 MFI
Ka (人T细胞CD3 (human) [4]): 1.6e+09 M⁻¹
MFI (人T细胞CD3 (human) [5]): 97 MFI
亲和力 relative to mOKT3 (orders of magnitude) (人T细胞CD3 (human) [6]): 2 数量级
B1: 人源化抗体huGD3 (antibody, human IgG1, V domains shown)
VH: QVQLVQSGGGVVQPGRSLRLSCKASGYTFTSYTMHWVRQAPGKGLEWIGYINPSSGYTKYNQKFKDRFTISADNSKSTAFLQMDSLRPEDTAVYYCARWQDYDVYFDYWGQGTPVTVSS
VL: DIVLTQSPSSLSASVGDRVTITCRASSSVSYMHWYQQTPGKAPKPWIYATSNLASGVPSRFSGSGSGTDYTFTISSLQPEDIATYYCQQWSSNPPTFGQGTKLQITR
